Measurements from patent publication US20210285965A1 (SEATTLE CHILDREN S HOSPITAL D B A SEATTLE CHILDREN S …, published 2021).

Assays:
Test in all cases: immunoaffinity peptide capture on mAb-Protein G magnetic beads, read by SRM-MS (immuno-SRM); ELISA screening
[1] = molecular target: T1, CYBB 509-521 signature peptide (TLYGRPNWDNEFK)
T1 construct: Endogenous tryptic peptide of CYBB from digested dried blood spots of patients and normal controls
T1 peptide: TLYGRPNWDNEFK

[2] = molecular target: T2, CD56 122-130 signature peptide (NAPTPQEFR)
T2 construct: Endogenous tryptic peptide of CD56 (NCAM) from digested dried blood spots of patients and normal controls
T2 peptide: NAPTPQEFR

[3] = molecular target: T3, DOCK8 1272-1283 signature peptide (TSGIVLSSLPYK)
T3 construct: Endogenous tryptic peptide of DOCK8 from digested dried blood spots of patients and normal controls
T3 peptide: TSGIVLSSLPYK

[4] = molecular target: T4, SH2D1A 19-32 signature peptide (LLLATGLDGSYLLR)
T4 construct: Tryptic peptide of SH2D1A (SAP); also called SAP
T4 peptide: LLLATGLDGSYLLR

[5] = molecular target: T5, ATM 1561-1572 signature peptide (LLDPFPDHVVFK)
T5 construct: Endogenous tryptic peptide of ATM from digested dried blood spots of normal controls
T5 peptide: LLDPFPDHVVFK

[6] = molecular target: T6, ADA 93-101 signature peptide (EGVVYVEVR) (human)
T6 peptide: EGVVYVEVR

[7] = molecular target: T7, CD42 128-137 signature peptide (LTSLPLGALR)
T7 construct: Endogenous tryptic peptide of CD42 (glycoprotein Ib) from digested dried blood spots of patients and normal controls
T7 peptide: LTSLPLGALR

[8] = molecular target: T8, CD42 154-165 signature peptide (TLPPGLLTPTPK)
T8 construct: Endogenous tryptic peptide of CD42 (glycoprotein Ib) from digested dried blood spots of patients and normal controls
T8 peptide: TLPPGLLTPTPK

B1: anti-CYBB 509 monoclonal antibody (antibody, V domains shown)
VH: QSLEESGGGLVKPGASLTLTCTASGFSFSRSYWICWVRQAPGKGLEWLGCIYAGSSGSTYYASWAKGRFTISKTSSTTVTLQMTSLTAADTATYFCARGNNNIIILDLWGPGILVTVSS
VL: AVLTQTPSPVSAAVGGTVTISCQASQSVYNNNALSWYQQKPGQPPKLLIYDASDLAPGVPSRFSGSGSGTQFTLTISDVQCDDAATYYCLGGYSVSSDNAFGGGTEVVVNG
notes: Full heavy and light chains without leader; also called clone EB0611C-1E12-H2 / EB0611C-1E12-K2
binding result [1]: binds

B2: anti-CD56 122 monoclonal antibody (antibody, V domains shown)
VH: QSLEESGGDLVKPGASLTLTCKASGLDFSSNYYMCWVRQAPGKGLEWIACIYSSSLNTWYASWAKGRFTISKSTSLHTVTLQMTSLTAADTATYFCTRGGGVYVGADYGFYFYLWGPGTLVTVSS
VL: DIVMTQTPSSVEAPVGGTVTIKCQASQSIDSWCAWYQQKPGQPPKLLIYKASTLESGVPSRFKGSGSGTEFTLTISDLECADAATYFCQSYYPTTGSDNAFGGGTEVVVKG
notes: Full heavy and light chains without leader; also called clone EB0608C-3H4-H2 / EB0608C-3H4-K2
binding result [2]: binds

B3: anti-DOCK8 1272 monoclonal antibody (antibody, V domains shown)
VH: EVQLQQSGTVLARPGASVKMSCKASGYTFTSYWMHWVKQRPGQGLEWIGAIFPGNSNTRYNQKFKGKAKLTAVTSASTAYMELSSLTNEDSAVYYCADDNAFDYWGQGTTLTVSS
VL: QIVLTQSPAIMSASPGEKVTMTCSASSSVSSRYLHWYQQKSGASPKLWIYGTSNLSSGVPDRFSGSGSGTSYSLTISSVETEDAATYYCQQYHSDPFTFGTGTKLEIK
notes: Hybridoma antibody; also called Hybridoma SJSH5-1C2-2E
binding result [3]: binds

B4: anti-SH2D1A (SAP) 19 monoclonal antibody (antibody, V domains shown)
VH: QSLEESGGRLVTPGGTLTLTCTVSGFSLSSYDMSWVRQAPGKGLEWIGFGNTGGSTYYASWAKGRFTISRTSTTVDLRMTSLTAADTATYFCTRGAPGWITTNMWGPGTLVTVSL
VL: QVLTQTPSPVSAAVGGTVTISCQSSQSVYRNKCLAWYQQKPGQPPKLLIYKASTLASGVPSRFSGSGSGTQFTFTISDLECDDSATYYCVGYYNTNTNTTTFGGGTEVVVKG
notes: Full heavy and light chains without leader; also called Anti-SH2D1A 19; clone EB0612B-2F4-H1 / EB0612B-2F4-K1
binding result [4]: binds

B5: anti-ATM 1561 monoclonal antibody (antibody, V domains shown)
VH: QEQLVESGGGLVQPGGSLTLTCKASGFDFSSGGMCWVRQAPGKGLEWIGCIVNGDGSTYFATWAKGRFTITRTSSTTVTLQMTSLTAADTATYFCWRYWALWGPGTLVTVSS
VL: IVMTQTPSSKSVPVGGTVTINCQASESLYNNNRLAWFQQKPGQPPKLLIYSASTLASGVPDRFSGSGSGTQFTLTISDVVCDDAATYYCVGGRSRVTDGIAFGGGTEAVVKG
notes: Full heavy and light chains without leader; also called clone EB0608D-4A10-H4 / EB0608D-4A10-K1
binding result [5]: binds

B6: anti-ADA 93 monoclonal antibody (antibody, V domains shown)
VH: QEQLEESGGDLVKPGSSLTLTCTASGFSFTNSDWECWVRQAPGKGLEWIACIYGDSRSGYYASWAKGRFTISKTSSTTVTLQMTTLTAADTATYFCARNLGSLWGPGTLVTVSS
VL: QVLTQTPSSVSAAVGGTVTINCQSSQNVVFNNRLAWFQQKPGQPPKLLIYQASTLASGVPPRFKGSGSGTQFTLTISDLECDDAATYYCLGSYDCSSTDCNTFGGGTEVVVKG
notes: Full heavy and light chains without leader; also called clone EB0608A-3C12-H2 / EB0608A-3C12-K2
binding result [6]: binds

B7: anti-CD42 128 monoclonal antibody (antibody, V domains shown)
VH: QAYLQQSGAVLVRPGASVKMSCKASGYTFSSYNIHWVKQTPRQGLEWIGGIYPGNGDTSYNKKFKDKATLTVDKSSNTAYMHLSSLTSEDSAVFFCASDGTRYWGQGTTLTVSS
VL: EVVMTQTPLTLSVTIGQAVSISCTSSQSLLASDGKTYLNWLLQRPGQSPKRLIYLVSKLDSGVPDRFTGSGSGTDFTLKISRVEADDLGVYCCWQGAHSPLTFGAGTRLELK
notes: Hybridoma antibody; also called Hybridoma SJSH4 3B8-1b
binding result [7]: binds

B8: anti-CD42 154 monoclonal antibody (antibody, V domains shown)
VH: EVQLQQSGPELVKPGASVKMSCKASGYTFTGYNMHWVKQSHGKSLEWIGDINPKTGENSYNQKFKGKATLTISKSSSTAYMELRSLTSEDSAVYYCVRWGVYYLDHWGQGTTLTVSS
VL: DIVMTQAAFSNPVTLGTSASISCRSTKSLLYSDGITYLYWYLQRPGQSPQLLIYRMSDLASGVPDRFSGSGSGTDFTLRISRVEAEDVGVYYCAQMVEFPPTFGGGTKLEIK
notes: Hybridoma antibody; also called Hybridoma SJSH4-1H11c
binding result [8]: binds
